Measurements: the Human Domainome abundance scans (Beltran et al. 2025)
± gives the uncertainty stated by the source.

B1: POU domain, class 4, transcription factor 2, residues 256 to 327; numbered along this chain, Q12837 (parent)
chain: RDLEAFAERFKQRRIKLGVTQADVGSALANLKIPGVGSLSQSTICRFESLTLSHNNMIALKPILQAWLEEAE
B2: Retinoic acid receptor beta, residues 85 to 161; numbered along this chain, P10826 (parent)
chain: YKPCFVCQDKSSGYHYGVSACEGCKGFFRRSIQKNMIYTCHRDKNCVINKVTRNRCQYCRLQKCFEVGMSKESVRND

Variants of: B1
Assay: abundance fitness (aPCA) (normalised: wild type 0, dead -1); higher = more abundant; growth selection in yeast, the domain comes from the species named
Settings: Homo sapiens

Variant | abundance fitness
RDLEAFAERFKQRRIKLGVTQADVGSALANLKIPGVGSLSQSTICRFESLTLSHNNMIALKPILQAWLEESE | -0.183 ± 0.092
RDLEAFAERFKQRRIKLGVTQADVGSALANLKIPGVGSLSQSTICRFESLTLSHNNMIALKPILQAWLEEQE | -0.188 ± 0.16
RDLEAFAERFKQRRIKLGVTQADVGSALANLKIPGVGSLSQSTICRFESLTLSHNNMIALKPILQAWLEEWE | -0.057 ± 0.2
RDLEAFAERFKQRRIKLGVTQADVGSALANLKIPGVGSLSQSTICRFESLTLSHNNMIALKPILQAWLEEPE | -0.671 ± 0.17
RDLEAFAERFKQRRIKLGVTQADVGSALANLKIPGVGSLSQSTICRFESLTLSHNNMIALKPILQAWLEEVE | -0.296 ± 0.19
RDLEAFAERFKQRRIKLGVTQADVGSALANLKIPGVGSLSQSTICRFESLTLSHNNMIALKPILQAWLEENE | -0.225 ± 0.23
RDLEAFAERFKQRRIKLGVTQADVGSALANLKIPGVGSLSQSTICRFESLTLSHNNMIALKPILQAWLEEAH | -0.38 ± 0.18
RDLEAFAERFKQRRIKLGVTQADVGSALANLKIPGVGSLSQSTICRFESLTLSHNNMIALKPILQAWLEEAT | -0.498 ± 0.28
RDLEAFAERFKQRRIKLGVTQADVGSALANLKIPGVGSLSQSTICRFESLTLSHNNMIALKPILQAWLEEAY | -0.206 ± 0.48
RDLEAFAERFKQRRIKLGVTQADVGSALANLKIPGVGSLSQSTICRFESLTLSHNNMIALKPILQAWLEEAA | -0.617 ± 0.28
RDLEAFAERFKQRRIKLGVTQADVGSALANLKIPGVGSLSQSTICRFESLTLSHNNMIALKPILQAWLEEAV | -0.419 ± 0.2
RDLEAFAERFKQRRIKLGVTQADVGSALANLKIPGVGSLSQSTICRFESLTLSHNNMIALKPILQAWLEEAD | -0.425 ± 0.28

Variants of: B2
Assay: as above
Settings: Homo sapiens

Variant | abundance fitness
YKPFFVCQDKSSGYHYGVSACEGCKGFFRRSIQKNMIYTCHRDKNCVINKVTRNRCQYCRLQKCFEVGMSKESVRND | -0.687 ± 0.25
YKPDFVCQDKSSGYHYGVSACEGCKGFFRRSIQKNMIYTCHRDKNCVINKVTRNRCQYCRLQKCFEVGMSKESVRND | -0.715 ± 0.17
YKPMFVCQDKSSGYHYGVSACEGCKGFFRRSIQKNMIYTCHRDKNCVINKVTRNRCQYCRLQKCFEVGMSKESVRND | -0.754 ± 0.16
YKPRFVCQDKSSGYHYGVSACEGCKGFFRRSIQKNMIYTCHRDKNCVINKVTRNRCQYCRLQKCFEVGMSKESVRND | -0.827 ± 0.088
YKPGFVCQDKSSGYHYGVSACEGCKGFFRRSIQKNMIYTCHRDKNCVINKVTRNRCQYCRLQKCFEVGMSKESVRND | -0.859 ± 0.096
YKPPFVCQDKSSGYHYGVSACEGCKGFFRRSIQKNMIYTCHRDKNCVINKVTRNRCQYCRLQKCFEVGMSKESVRND | -0.428 ± 0.11
YKPAFVCQDKSSGYHYGVSACEGCKGFFRRSIQKNMIYTCHRDKNCVINKVTRNRCQYCRLQKCFEVGMSKESVRND | -0.691 ± 0.14
YKPLFVCQDKSSGYHYGVSACEGCKGFFRRSIQKNMIYTCHRDKNCVINKVTRNRCQYCRLQKCFEVGMSKESVRND | -0.778 ± 0.11
YKPTFVCQDKSSGYHYGVSACEGCKGFFRRSIQKNMIYTCHRDKNCVINKVTRNRCQYCRLQKCFEVGMSKESVRND | -1.26 ± 0.39
YKPVFVCQDKSSGYHYGVSACEGCKGFFRRSIQKNMIYTCHRDKNCVINKVTRNRCQYCRLQKCFEVGMSKESVRND | -0.807 ± 0.12
YKPQFVCQDKSSGYHYGVSACEGCKGFFRRSIQKNMIYTCHRDKNCVINKVTRNRCQYCRLQKCFEVGMSKESVRND | -0.889 ± 0.27
YKPNFVCQDKSSGYHYGVSACEGCKGFFRRSIQKNMIYTCHRDKNCVINKVTRNRCQYCRLQKCFEVGMSKESVRND | -0.731 ± 0.43
YKPIFVCQDKSSGYHYGVSACEGCKGFFRRSIQKNMIYTCHRDKNCVINKVTRNRCQYCRLQKCFEVGMSKESVRND | -0.917 ± 0.42
YRPCFVCQDKSSGYHYGVSACEGCKGFFRRSIQKNMIYTCHRDKNCVINKVTRNRCQYCRLQKCFEVGMSKESVRND | -0.282 ± 0.057
YYPCFVCQDKSSGYHYGVSACEGCKGFFRRSIQKNMIYTCHRDKNCVINKVTRNRCQYCRLQKCFEVGMSKESVRND | -0.1 ± 0.092
YAPCFVCQDKSSGYHYGVSACEGCKGFFRRSIQKNMIYTCHRDKNCVINKVTRNRCQYCRLQKCFEVGMSKESVRND | -0.289 ± 0.082
YWPCFVCQDKSSGYHYGVSACEGCKGFFRRSIQKNMIYTCHRDKNCVINKVTRNRCQYCRLQKCFEVGMSKESVRND | -0.308 ± 0.093
YEPCFVCQDKSSGYHYGVSACEGCKGFFRRSIQKNMIYTCHRDKNCVINKVTRNRCQYCRLQKCFEVGMSKESVRND | -0.285 ± 0.081
YPPCFVCQDKSSGYHYGVSACEGCKGFFRRSIQKNMIYTCHRDKNCVINKVTRNRCQYCRLQKCFEVGMSKESVRND | -0.169 ± 0.11
YVPCFVCQDKSSGYHYGVSACEGCKGFFRRSIQKNMIYTCHRDKNCVINKVTRNRCQYCRLQKCFEVGMSKESVRND | -0.104 ± 0.052

Variant | abundance fitness
YQPCFVCQDKSSGYHYGVSACEGCKGFFRRSIQKNMIYTCHRDKNCVINKVTRNRCQYCRLQKCFEVGMSKESVRND | 0.052 ± 0.073
YDPCFVCQDKSSGYHYGVSACEGCKGFFRRSIQKNMIYTCHRDKNCVINKVTRNRCQYCRLQKCFEVGMSKESVRND | 0.017 ± 0.088
YIPCFVCQDKSSGYHYGVSACEGCKGFFRRSIQKNMIYTCHRDKNCVINKVTRNRCQYCRLQKCFEVGMSKESVRND | -0.144 ± 0.093
YFPCFVCQDKSSGYHYGVSACEGCKGFFRRSIQKNMIYTCHRDKNCVINKVTRNRCQYCRLQKCFEVGMSKESVRND | -0.266 ± 0.29
YMPCFVCQDKSSGYHYGVSACEGCKGFFRRSIQKNMIYTCHRDKNCVINKVTRNRCQYCRLQKCFEVGMSKESVRND | -0.074 ± 0.073
YGPCFVCQDKSSGYHYGVSACEGCKGFFRRSIQKNMIYTCHRDKNCVINKVTRNRCQYCRLQKCFEVGMSKESVRND | -0.182 ± 0.05
YHPCFVCQDKSSGYHYGVSACEGCKGFFRRSIQKNMIYTCHRDKNCVINKVTRNRCQYCRLQKCFEVGMSKESVRND | 0.091 ± 0.11
YNPCFVCQDKSSGYHYGVSACEGCKGFFRRSIQKNMIYTCHRDKNCVINKVTRNRCQYCRLQKCFEVGMSKESVRND | 0.162 ± 0.065
YLPCFVCQDKSSGYHYGVSACEGCKGFFRRSIQKNMIYTCHRDKNCVINKVTRNRCQYCRLQKCFEVGMSKESVRND | -0.162 ± 0.064
YSPCFVCQDKSSGYHYGVSACEGCKGFFRRSIQKNMIYTCHRDKNCVINKVTRNRCQYCRLQKCFEVGMSKESVRND | -0.068 ± 0.057
YKICFVCQDKSSGYHYGVSACEGCKGFFRRSIQKNMIYTCHRDKNCVINKVTRNRCQYCRLQKCFEVGMSKESVRND | -0.042 ± 0.17
YKNCFVCQDKSSGYHYGVSACEGCKGFFRRSIQKNMIYTCHRDKNCVINKVTRNRCQYCRLQKCFEVGMSKESVRND | 0.162 ± 0.092
YKHCFVCQDKSSGYHYGVSACEGCKGFFRRSIQKNMIYTCHRDKNCVINKVTRNRCQYCRLQKCFEVGMSKESVRND | 0.006 ± 0.088
YKQCFVCQDKSSGYHYGVSACEGCKGFFRRSIQKNMIYTCHRDKNCVINKVTRNRCQYCRLQKCFEVGMSKESVRND | 0.079 ± 0.056
YKYCFVCQDKSSGYHYGVSACEGCKGFFRRSIQKNMIYTCHRDKNCVINKVTRNRCQYCRLQKCFEVGMSKESVRND | 0.174 ± 0.11
YKVCFVCQDKSSGYHYGVSACEGCKGFFRRSIQKNMIYTCHRDKNCVINKVTRNRCQYCRLQKCFEVGMSKESVRND | -0.023 ± 0.051
YKSCFVCQDKSSGYHYGVSACEGCKGFFRRSIQKNMIYTCHRDKNCVINKVTRNRCQYCRLQKCFEVGMSKESVRND | 0.031 ± 0.055
YKKCFVCQDKSSGYHYGVSACEGCKGFFRRSIQKNMIYTCHRDKNCVINKVTRNRCQYCRLQKCFEVGMSKESVRND | 0.048 ± 0.066
YKRCFVCQDKSSGYHYGVSACEGCKGFFRRSIQKNMIYTCHRDKNCVINKVTRNRCQYCRLQKCFEVGMSKESVRND | -0.321 ± 0.051
YKFCFVCQDKSSGYHYGVSACEGCKGFFRRSIQKNMIYTCHRDKNCVINKVTRNRCQYCRLQKCFEVGMSKESVRND | 0.037 ± 0.14

Variant | abundance fitness
YKCCFVCQDKSSGYHYGVSACEGCKGFFRRSIQKNMIYTCHRDKNCVINKVTRNRCQYCRLQKCFEVGMSKESVRND | -0.101 ± 0.094
YKDCFVCQDKSSGYHYGVSACEGCKGFFRRSIQKNMIYTCHRDKNCVINKVTRNRCQYCRLQKCFEVGMSKESVRND | 0.225 ± 0.089
YKACFVCQDKSSGYHYGVSACEGCKGFFRRSIQKNMIYTCHRDKNCVINKVTRNRCQYCRLQKCFEVGMSKESVRND | 0.064 ± 0.043
YKLCFVCQDKSSGYHYGVSACEGCKGFFRRSIQKNMIYTCHRDKNCVINKVTRNRCQYCRLQKCFEVGMSKESVRND | 0.027 ± 0.048
YKWCFVCQDKSSGYHYGVSACEGCKGFFRRSIQKNMIYTCHRDKNCVINKVTRNRCQYCRLQKCFEVGMSKESVRND | -0.223 ± 0.064
YKECFVCQDKSSGYHYGVSACEGCKGFFRRSIQKNMIYTCHRDKNCVINKVTRNRCQYCRLQKCFEVGMSKESVRND | 0.136 ± 0.055
WKPCFVCQDKSSGYHYGVSACEGCKGFFRRSIQKNMIYTCHRDKNCVINKVTRNRCQYCRLQKCFEVGMSKESVRND | -0.221 ± 0.081
RKPCFVCQDKSSGYHYGVSACEGCKGFFRRSIQKNMIYTCHRDKNCVINKVTRNRCQYCRLQKCFEVGMSKESVRND | -0.239 ± 0.065
EKPCFVCQDKSSGYHYGVSACEGCKGFFRRSIQKNMIYTCHRDKNCVINKVTRNRCQYCRLQKCFEVGMSKESVRND | -0.109 ± 0.11
NKPCFVCQDKSSGYHYGVSACEGCKGFFRRSIQKNMIYTCHRDKNCVINKVTRNRCQYCRLQKCFEVGMSKESVRND | 0.255 ± 0.07
QKPCFVCQDKSSGYHYGVSACEGCKGFFRRSIQKNMIYTCHRDKNCVINKVTRNRCQYCRLQKCFEVGMSKESVRND | -0.132 ± 0.17
CKPCFVCQDKSSGYHYGVSACEGCKGFFRRSIQKNMIYTCHRDKNCVINKVTRNRCQYCRLQKCFEVGMSKESVRND | -0.008 ± 0.085
HKPCFVCQDKSSGYHYGVSACEGCKGFFRRSIQKNMIYTCHRDKNCVINKVTRNRCQYCRLQKCFEVGMSKESVRND | 0.055 ± 0.13
TKPCFVCQDKSSGYHYGVSACEGCKGFFRRSIQKNMIYTCHRDKNCVINKVTRNRCQYCRLQKCFEVGMSKESVRND | -0.109 ± 0.11
VKPCFVCQDKSSGYHYGVSACEGCKGFFRRSIQKNMIYTCHRDKNCVINKVTRNRCQYCRLQKCFEVGMSKESVRND | 0.158 ± 0.054
IKPCFVCQDKSSGYHYGVSACEGCKGFFRRSIQKNMIYTCHRDKNCVINKVTRNRCQYCRLQKCFEVGMSKESVRND | -0.01 ± 0.13
KKPCFVCQDKSSGYHYGVSACEGCKGFFRRSIQKNMIYTCHRDKNCVINKVTRNRCQYCRLQKCFEVGMSKESVRND | 0.193 ± 0.13
LKPCFVCQDKSSGYHYGVSACEGCKGFFRRSIQKNMIYTCHRDKNCVINKVTRNRCQYCRLQKCFEVGMSKESVRND | -0.086 ± 0.067
MKPCFVCQDKSSGYHYGVSACEGCKGFFRRSIQKNMIYTCHRDKNCVINKVTRNRCQYCRLQKCFEVGMSKESVRND | 0.067 ± 0.12
GKPCFVCQDKSSGYHYGVSACEGCKGFFRRSIQKNMIYTCHRDKNCVINKVTRNRCQYCRLQKCFEVGMSKESVRND | -0.097 ± 0.055
